Experimental findings from FireProtDB (doi:10.1016/j.jmb.2007.09.088) are described below.

Sequence of Chitinase A1 F622L, P20533 (P20533 whole entry F622L): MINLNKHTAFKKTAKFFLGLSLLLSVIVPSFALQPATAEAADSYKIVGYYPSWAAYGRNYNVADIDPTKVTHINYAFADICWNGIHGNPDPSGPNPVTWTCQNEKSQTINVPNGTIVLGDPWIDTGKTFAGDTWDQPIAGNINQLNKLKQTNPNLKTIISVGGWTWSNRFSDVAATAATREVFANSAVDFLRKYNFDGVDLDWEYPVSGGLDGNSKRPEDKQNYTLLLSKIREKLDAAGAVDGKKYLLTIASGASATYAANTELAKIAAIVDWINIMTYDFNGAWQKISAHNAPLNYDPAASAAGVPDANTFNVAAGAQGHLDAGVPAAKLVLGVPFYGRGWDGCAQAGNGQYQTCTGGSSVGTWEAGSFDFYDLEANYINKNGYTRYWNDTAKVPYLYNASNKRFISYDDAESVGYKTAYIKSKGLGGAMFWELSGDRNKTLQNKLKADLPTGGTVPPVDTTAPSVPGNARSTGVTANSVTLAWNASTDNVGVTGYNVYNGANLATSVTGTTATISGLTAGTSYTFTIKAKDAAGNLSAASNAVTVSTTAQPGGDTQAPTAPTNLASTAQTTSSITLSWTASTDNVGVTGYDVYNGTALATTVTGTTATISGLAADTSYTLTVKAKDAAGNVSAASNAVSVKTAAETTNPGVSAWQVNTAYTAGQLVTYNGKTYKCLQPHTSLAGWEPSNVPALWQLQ
Sequence of Chitinase A1 V624A, P20533 (P20533 whole entry V624A): as the sequence (P20533 whole entry F622L) above, with L622F, V624A counted along it
Sequence of Chitinase A1 S568A, P20533 (P20533 whole entry S568A): as the sequence (P20533 whole entry F622L) above, with S568A, L622F counted along it
Sequence of Chitinase A1 V589A, P20533 (P20533 whole entry V589A): as the sequence (P20533 whole entry F622L) above, with V589A, L622F counted along it
Sequence of Chitinase A1 L566A, P20533 (P20533 whole entry L566A): as the sequence (P20533 whole entry F622L) above, with L566A, L622F counted along it
Sequence of Chitinase A1 N596A, P20533 (P20533 whole entry N596A): as the sequence (P20533 whole entry F622L) above, with N596A, L622F counted along it
Sequence of Chitinase A1 A609G, P20533 (P20533 whole entry A609G): as the sequence (P20533 whole entry F622L) above, with A609G, L622F counted along it
Sequence of Chitinase A1 V642A, P20533 (P20533 whole entry V642A): as the sequence (P20533 whole entry F622L) above, with L622F, V642A counted along it
Sequence of Chitinase A1 Y620F, P20533 (P20533 whole entry Y620F): as the sequence (P20533 whole entry F622L) above, with Y620F, L622F counted along it
Sequence of Chitinase A1 S637A, P20533 (P20533 whole entry S637A): as the sequence (P20533 whole entry F622L) above, with L622F, S637A counted along it
Sequence of Chitinase A1 I576A, P20533 (P20533 whole entry I576A): as the sequence (P20533 whole entry F622L) above, with I576A, L622F counted along it
Sequence of Chitinase A1 V594A, P20533 (P20533 whole entry V594A): as the sequence (P20533 whole entry F622L) above, with V594A, L622F counted along it
Sequence of Chitinase A1 T602A, P20533 (P20533 whole entry T602A): as the sequence (P20533 whole entry F622L) above, with T602A, L622F counted along it
Sequence of Chitinase A1 Y592F, P20533 (P20533 whole entry Y592F): as the sequence (P20533 whole entry F622L) above, with Y592F, L622F counted along it
Sequence of Chitinase A1 A626G, P20533 (P20533 whole entry A626G): as the sequence (P20533 whole entry F622L) above, with L622F, A626G counted along it
Sequence of Chitinase A1 I611A, P20533 (P20533 whole entry I611A): as the sequence (P20533 whole entry F622L) above, with I611A, L622F counted along it
Sequence of Chitinase A1 V604A, P20533 (P20533 whole entry V604A): as the sequence (P20533 whole entry F622L) above, with V604A, L622F counted along it
Sequence of Chitinase A1 Y620L, P20533 (P20533 whole entry Y620L): as the sequence (P20533 whole entry F622L) above, with Y620L, L622F counted along it
Sequence of Chitinase A1 L578A, P20533 (P20533 whole entry L578A): as the sequence (P20533 whole entry F622L) above, with L578A, L622F counted along it
Sequence of Chitinase A1 Y592L, P20533 (P20533 whole entry Y592L): as the sequence (P20533 whole entry F622L) above, with Y592L, L622F counted along it
Sequence of Chitinase A1 V640A, P20533 (P20533 whole entry V640A): as the sequence (P20533 whole entry F622L) above, with L622F, V640A counted along it
Sequence of Chitinase A1 L614A, P20533 (P20533 whole entry L614A): as the sequence (P20533 whole entry F622L) above, with L614A, L622F counted along it

For the data set the following is noted: Niallia circulans; pH 5; 25 °C; Urea; Fluorescence; Sodium acetate 50mM; transition: 2; reversible: yes; structure 1K85.
In the case of Chitinase A1 I576A, P20533, the “ddG of mutation (higher = less stable)” value was 3.11 kcal/mol, the denaturant m value was 1.15 kcal/mol/M, the “denaturant midpoint (higher = more stable)” value (shortened to “denaturant midpoint”) came out at 3.5 M and the unfolding free energy stood at 3.59 kcal/mol.
Consider Chitinase A1 I611A, P20533, for which the “ddG of mutation (higher = less stable)” value was determined as 3.63 kcal/mol, the denaturant m value stood at 1.13 kcal/mol/M, the “denaturant midpoint” value came to 3.05 M and the unfolding free energy was 3.07 kcal/mol.
As for Chitinase A1 S568A, P20533, the “ddG of mutation (higher = less stable)” value was -0.1 kcal/mol, the denaturant m value was 1 kcal/mol/M, the “denaturant midpoint” value came out at 6.29 M and the unfolding free energy stood at 6.8 kcal/mol.
In the same order, the values of Chitinase A1 L578A, P20533 are 5.54 kcal/mol, 1.16 kcal/mol/M, 1.39 M and 1.16 kcal/mol.
Turning to Chitinase A1 V624A, P20533, the “ddG of mutation (higher = less stable)” value was 4.07 kcal/mol, the denaturant m value stood at 1.19 kcal/mol/M, the “denaturant midpoint” value is 2.67 M and the unfolding free energy came out at 2.63 kcal/mol.
As to Chitinase A1 N596A, P20533, the “ddG of mutation (higher = less stable)” value amounted to 1 kcal/mol, the denaturant m value is 0.99 kcal/mol/M, the “denaturant midpoint” value was 5.33 M and the unfolding free energy was determined as 5.7 kcal/mol.
For Chitinase A1 L566A, P20533, the “ddG of mutation (higher = less stable)” value turned out to be 2.52 kcal/mol, the denaturant m value worked out at 1.19 kcal/mol/M, the “denaturant midpoint” value came to 4.01 M and the unfolding free energy was found to be 4.18 kcal/mol.
Take Chitinase A1 A609G, P20533: the “ddG of mutation (higher = less stable)” value came out at 2.33 kcal/mol, the denaturant m value was 1.18 kcal/mol/M, the “denaturant midpoint” value came out at 4.18 M and the unfolding free energy was found to be 4.37 kcal/mol.
Turning to Chitinase A1 V604A, P20533, the “ddG of mutation (higher = less stable)” value worked out at 1.58 kcal/mol, the denaturant m value came out at 1.1 kcal/mol/M, the “denaturant midpoint” value came out at 4.83 M and the unfolding free energy is 5.12 kcal/mol.
As to Chitinase A1 T602A, P20533, the “ddG of mutation (higher = less stable)” value is -1.49 kcal/mol, the denaturant m value turned out to be 0.89 kcal/mol/M, the “denaturant midpoint” value worked out at 7.49 M and the unfolding free energy turned out to be 8.19 kcal/mol.
In the same order, the values of Chitinase A1 Y592F, P20533 are 1.77 kcal/mol, 1.25 kcal/mol/M, 4.66 M and 4.93 kcal/mol.
On to Chitinase A1 L614A, P20533, for which the “ddG of mutation (higher = less stable)” value was found to be 5.26 kcal/mol, the denaturant m value amounted to 1.13 kcal/mol/M, the “denaturant midpoint” value came out at 1.63 M and the unfolding free energy is 1.44 kcal/mol.
For Chitinase A1 V589A, P20533 the same measures were 1.77 kcal/mol, 1.16 kcal/mol/M, 4.66 M and 4.93 kcal/mol.
On to Chitinase A1 A626G, P20533, for which the “ddG of mutation (higher = less stable)” value was 1.88 kcal/mol, the denaturant m value is 1.22 kcal/mol/M, the “denaturant midpoint” value turned out to be 4.57 M and the unfolding free energy was 4.82 kcal/mol.
In the case of Chitinase A1 S637A, P20533, the “ddG of mutation (higher = less stable)” value was 1.42 kcal/mol, the denaturant m value came out at 1.13 kcal/mol/M, the “denaturant midpoint” value was 4.97 M and the unfolding free energy worked out at 5.28 kcal/mol.
On to Chitinase A1 F622L, P20533, for which the “ddG of mutation (higher = less stable)” value is 2.5 kcal/mol, the denaturant m value is 1.08 kcal/mol/M, the “denaturant midpoint” value came out at 4.03 M and the unfolding free energy was 4.2 kcal/mol.
In the case of Chitinase A1 Y592L, P20533, the “ddG of mutation (higher = less stable)” value was determined as 5.97 kcal/mol, the denaturant m value was found to be 1.46 kcal/mol/M, the “denaturant midpoint” value amounted to 1.02 M and the unfolding free energy was found to be 0.73 kcal/mol.
In the case of Chitinase A1 V594A, P20533, the “ddG of mutation (higher = less stable)” value turned out to be 4.19 kcal/mol, the denaturant m value was found to be 1.27 kcal/mol/M, the “denaturant midpoint” value is 2.56 M and the unfolding free energy was 2.51 kcal/mol.
Consider Chitinase A1 Y620L, P20533, for which the “ddG of mutation (higher = less stable)” value is 4.38 kcal/mol, the denaturant m value amounted to 1.26 kcal/mol/M, the “denaturant midpoint” value amounted to 2.4 M and the unfolding free energy amounted to 2.32 kcal/mol.
Take Chitinase A1 Y620F, P20533: the “ddG of mutation (higher = less stable)” value came to 1.52 kcal/mol, the denaturant m value came to 1.31 kcal/mol/M, the “denaturant midpoint” value was 4.88 M and the unfolding free energy is 5.18 kcal/mol.
In the same order, the values of Chitinase A1 V640A, P20533 are 1.66 kcal/mol, 1.22 kcal/mol/M, 4.76 M and 5.04 kcal/mol.
For Chitinase A1 V642A, P20533 the same measures were 1.44 kcal/mol, 1.15 kcal/mol/M, 4.95 M and 5.26 kcal/mol.
